Assay [1] addresses recombinant penicillin binding protein 2a (PBP2a) (Staphylococcus aureus). Put plainly: SPR (BIACORE), rPBP2a coupled on CM5 chip, antibody flowed at 0 to 5 nM; purified antibody.
The target is the same in assay [2]. Put plainly: SPR (BIACORE), rPBP2a coupled on CM5 chip, antibody flowed at 0 to 5 nM; culture supernatant 2.
The target is the same in assay [3]. Briefly: SPR (BIACORE), rPBP2a coupled on CM5 chip, antibody flowed at 0 to 5 nM; culture supernatant 1. A general note: SPR reads the build-up and loss of mass on a sensor chip optically.

B1: 3B12 antibody (antibody, V domains shown)
VH: EVQLQQSGAEFVKPGASVKLSCRVSGFNIKDYYINWVKQRTEQGLEWIGRIDPEDGETKYAPKFQGKATITADTSSNTANLHLSSLTSADTAVYYCASSGYAFAWFLYWGQGTLVTVSA
VL: DILLTQSPAILSVSPGERVSFSCRASQSIGTSIHWYQQRTNGSPRLLIKYASESISGIPSRFSGSGSGTDFTLSINSVESEDIADYYCQQSNRWPFTFGSGTKLEIKR
Broadly, the Kd is the free concentration of one partner at which half of the binding sites on the other are occupied at equilibrium, for simple one-to-one binding. On to B1, for which the equilibrium dissociation constant (Kd) in assay [1] came to 176 pM; in assay [2], 6050 pM; in assay [3], 4850 pM.

B2: 2B2 antibody (antibody, V domains shown)
VH: VQLQQSGAEFVKRPGASVKLSCRVSGFNIKDYYINWVKQRTEQGLEWIGRIDPEDGETKYAPKFQGKATITADTSSNTANLHLSSLTSADTAVYYCASSGYAFAWFLYWGQGTLVTVSA
VL: B1 VL
As to B2, the Kd in assay [1] is 359 pM; in assay [2], 2150 pM.

B3: 2G7 antibody (antibody, V domains shown)
VH: EVQLQQSGAELVKPGASVKLSCTASGFNIKDYFIHWVNQRTKQGLEWIGRIDPEDGETKYAPKFQGKATLTADTTSNTADLQLSSLTSEDTAVYYCVLYYSRSFDYWGQGTTLTVSS
VL: QNVLTQSPAIMSASPGEKVTMTCSASSSVSYMHWYQQKSGTSPKRWIYDTSKLASGVPARFSGSGSGTSYSLTISSMEAEDAATYYCQQWSSNPLTFGAGTKLELKR
On to B3, for which the Kd in assay [1] amounted to 1.18 pM; in assay [2], 0.0022 pM; in assay [3], 0.204 pM.
